Reference: PMC4579555, “The Cryo-EM structure of the CorA channel from Methanocaldococcus jannaschii in low magnesium conditions” (Biochimica et Biophysica Acta, 2015)

Target: the molecule itself
Assay: self-rotation function of X-ray crystallographic data; crystals grown at low pH (0.1 M sodium citrate pH 3.5, 50 mM magnesium sulphate, 50 mM cobalt chloride, 0.1 M NaCl, 13% PEG 4000, 0.9% beta-octylmaltoside); data to 9.0 A, spacegroup P2(1); structure not phased; POLARRFN self-rotation function, data to 12 A

B1: Methanocaldococcus jannaschii CorA channel (natural protein)
chain: MITVIAIAKDGSIVEPKLDEISFEDYRLIWIDCYDPKDEELYKLSKKIGISVSDLQIGLDEQEIPRVEEDEDFYLIIYKAPLFEEDITTTSLGIYIKNNLLLTIHSDKIKAIGRLHKLISTKKPRIVFERGIGFLLYHILNEITRSYSRILMNLEDELEELEDKLLAGYDREVMEKILGLRKTLVYFHKSLIANRDVLVLLKRKYLPITTKEDRENFEDLYYDTLQLIDMSATYREVLTSMMDITLSLENIKMNQIMKILTMVTTIFAVPMWITGIYGMNFSYLPLANNPQGFWLVMALMVVIIMIFVYIFRRSGWI
notes: CorA magnesium channel of Methanocaldococcus jannaschii (MjCorA); holds the N-terminal, conical and trans-membrane domains; also called MjCorA; source: final buffer 200 mM NaCl, 20 mM Tris/HCl pH8, 0.04% DDM
stoichiometry N: 5
